A word on the Kd: it is the equilibrium constant for the complex coming apart.

In the assay the target is T1, His-Tagged human CD38 recombinant protein (human) (UniProt P28907).
T1 sequence (P28907 whole entry, looked up): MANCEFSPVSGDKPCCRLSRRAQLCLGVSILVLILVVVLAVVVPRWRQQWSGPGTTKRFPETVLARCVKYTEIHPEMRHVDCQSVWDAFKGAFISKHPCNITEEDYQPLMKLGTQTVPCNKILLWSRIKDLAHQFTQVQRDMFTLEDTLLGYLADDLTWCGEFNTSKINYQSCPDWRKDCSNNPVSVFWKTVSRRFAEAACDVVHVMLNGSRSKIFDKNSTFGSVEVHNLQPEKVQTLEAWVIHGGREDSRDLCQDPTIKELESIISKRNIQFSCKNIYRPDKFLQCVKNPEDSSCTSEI
Put plainly: SPR.

*1 amine or outer side, *2 acyl side, *3 side chain or, on linkers, in order; H or OH if unused. Bridges are numbered along the chain shown (N, C = ends). Primed or numbered codes have the meaning given here. The star is where a group is joined. PEG3′ = three-unit polyethylene glycol linker; NOTA = O=C(O)CN1CCN(CC(=O)O)CCN(CC(=O)*)CC1; TBMB = c1c(C[*:1])cc(C[*:3])cc1C[*:2]

For the molecule {NOTA-PEG3′}-ACVPCADFPIWYC-NH2 (linker 2-5-13 via TBMB) [AJ206 (NOTA-conjugated bicyclic peptide)], the Kd was 19.1 nM.

The values above are taken from article doi:10.1101/2023.05.09.540036.
